Results: publication PMC314469, “Protein Interaction Networks by Proteome Peptide Scanning” (PLoS Biology, 2004)

Biological target: T1, Boi1 SH3 (BOI1_YEAST), P38041
T1 chain: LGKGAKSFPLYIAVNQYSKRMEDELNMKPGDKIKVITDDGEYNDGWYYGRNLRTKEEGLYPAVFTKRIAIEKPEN
Experiment: SPOT array
YEGPRGAPGMPEML [YJR016C 463-476] gave a normalised SPOT signal, Boehringer light units (BLU); mean over the file's lines of this peptide of 64. With YVYGRQDPKKPFFT [YNL137C 410-423] the normalised SPOT signal, Boehringer light units (BLU); mean over the file's lines of this peptide was 1330. For YVNPRNLPSVPNGL [YLR418C 264-277], the normalised SPOT signal, Boehringer light units (BLU); mean over the file's lines of this peptide was 174. With YYYYKHYPNMPPIN [YMR313C 453-466] the normalised SPOT signal, Boehringer light units (BLU); mean over the file's lines of this peptide was 227. With YSTNRGIPARPSKD [YPL073C 79-92] the normalised SPOT signal, Boehringer light units (BLU); mean over the file's lines of this peptide was 534. YILPKTDPRSPYYI [YPR115W 96-109] showed a normalised SPOT signal, Boehringer light units (BLU); mean over the file's lines of this peptide of 222. YKNRKNLPTIPIRL [YGL085W 139-152] was tested, and the normalised SPOT signal, Boehringer light units (BLU); mean over the file's lines of this peptide was 12400. In the case of YFVKKIRPGNPLTK [YJL149W 279-292], the normalised SPOT signal, Boehringer light units (BLU); mean over the file's lines of this peptide is reported as 410.

Biological target: T2, Boi2 SH3 (BOI2_YEAST), P39969
T2 chain: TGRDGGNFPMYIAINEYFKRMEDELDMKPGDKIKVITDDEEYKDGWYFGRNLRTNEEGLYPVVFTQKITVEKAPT
Experiment: SPOT array
YEGPRGAPGMPEML [YJR016C 463-476] showed a normalised SPOT signal, Boehringer light units (BLU); mean over the file's lines of this peptide of 26.3. In the case of YVYGRQDPKKPFFT [YNL137C 410-423], the normalised SPOT signal, Boehringer light units (BLU); mean over the file's lines of this peptide is reported as 23.2. With YVNPRNLPSVPNGL [YLR418C 264-277] the normalised SPOT signal, Boehringer light units (BLU); mean over the file's lines of this peptide was 59.5. YYYYKHYPNMPPIN [YMR313C 453-466] was tested, and the normalised SPOT signal, Boehringer light units (BLU); mean over the file's lines of this peptide was 273. In the case of YSTNRGIPARPSKD [YPL073C 79-92], the normalised SPOT signal, Boehringer light units (BLU); mean over the file's lines of this peptide is reported as 107. Work on YILPKTDPRSPYYI [YPR115W 96-109] yielded a normalised SPOT signal, Boehringer light units (BLU); mean over the file's lines of this peptide of 44.9. For YKNRKNLPTIPIRL [YGL085W 139-152], the normalised SPOT signal, Boehringer light units (BLU); mean over the file's lines of this peptide was 48.9. YFVKKIRPGNPLTK [YJL149W 279-292] was tested, and the normalised SPOT signal, Boehringer light units (BLU); mean over the file's lines of this peptide was 58.3.

Biological target: T3, Myo5 SH3 (MYO5_YEAST), Q04439
T3 chain: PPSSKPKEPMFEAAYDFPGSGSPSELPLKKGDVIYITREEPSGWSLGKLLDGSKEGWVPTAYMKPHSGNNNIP
Experiment: SPOT array
Work on YEGPRGAPGMPEML [YJR016C 463-476] yielded a normalised SPOT signal, Boehringer light units (BLU); mean over the file's lines of this peptide of 166. YVYGRQDPKKPFFT [YNL137C 410-423] was tested, and the normalised SPOT signal, Boehringer light units (BLU); mean over the file's lines of this peptide was 345. YVNPRNLPSVPNGL [YLR418C 264-277] showed a normalised SPOT signal, Boehringer light units (BLU); mean over the file's lines of this peptide of 180. Work on YYYYKHYPNMPPIN [YMR313C 453-466] yielded a normalised SPOT signal, Boehringer light units (BLU); mean over the file's lines of this peptide of 288. YSTNRGIPARPSKD [YPL073C 79-92] was tested, and the normalised SPOT signal, Boehringer light units (BLU); mean over the file's lines of this peptide was 271. YILPKTDPRSPYYI [YPR115W 96-109] showed a normalised SPOT signal, Boehringer light units (BLU); mean over the file's lines of this peptide of 188. YKNRKNLPTIPIRL [YGL085W 139-152] gave a normalised SPOT signal, Boehringer light units (BLU); mean over the file's lines of this peptide of 961. Binder YFVKKIRPGNPLTK [YJL149W 279-292] has a normalised SPOT signal, Boehringer light units (BLU); mean over the file's lines of this peptide of 508.

Biological target: T4, Rvs167 SH3 (RV167_YEAST), P39743
T4 chain: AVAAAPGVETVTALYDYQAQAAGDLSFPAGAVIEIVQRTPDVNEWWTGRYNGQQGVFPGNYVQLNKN
Experiment: SPOT array
Work on YEGPRGAPGMPEML [YJR016C 463-476] yielded a normalised SPOT signal, Boehringer light units (BLU); mean over the file's lines of this peptide of 63.3. With YVYGRQDPKKPFFT [YNL137C 410-423] the normalised SPOT signal, Boehringer light units (BLU); mean over the file's lines of this peptide was 201. With YVNPRNLPSVPNGL [YLR418C 264-277] the normalised SPOT signal, Boehringer light units (BLU); mean over the file's lines of this peptide was 490. Binder YYYYKHYPNMPPIN [YMR313C 453-466] has a normalised SPOT signal, Boehringer light units (BLU); mean over the file's lines of this peptide of 310. YSTNRGIPARPSKD [YPL073C 79-92] showed a normalised SPOT signal, Boehringer light units (BLU); mean over the file's lines of this peptide of 8430. YILPKTDPRSPYYI [YPR115W 96-109] showed a normalised SPOT signal, Boehringer light units (BLU); mean over the file's lines of this peptide of 176. Work on YKNRKNLPTIPIRL [YGL085W 139-152] yielded a normalised SPOT signal, Boehringer light units (BLU); mean over the file's lines of this peptide of 2750. YFVKKIRPGNPLTK [YJL149W 279-292] showed a normalised SPOT signal, Boehringer light units (BLU); mean over the file's lines of this peptide of 220.

Each binder was assayed against Sho1 SH3 (SHO1_YEAST), P40073 (assay: SPOT array).
Sho1 SH3 (SHO1_YEAST), P40073, sequence (P40073 295-366): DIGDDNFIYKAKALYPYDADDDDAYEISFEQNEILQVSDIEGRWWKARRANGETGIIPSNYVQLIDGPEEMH
For YEGPRGAPGMPEML [YJR016C 463-476], the normalised SPOT signal, Boehringer light units (BLU); mean over the file's lines of this peptide was 39.6. Binder YVYGRQDPKKPFFT [YNL137C 410-423] has a normalised SPOT signal, Boehringer light units (BLU); mean over the file's lines of this peptide of 118. With YVNPRNLPSVPNGL [YLR418C 264-277] the normalised SPOT signal, Boehringer light units (BLU); mean over the file's lines of this peptide was 2350. YYYYKHYPNMPPIN [YMR313C 453-466] gave a normalised SPOT signal, Boehringer light units (BLU); mean over the file's lines of this peptide of 59.1. In the case of YSTNRGIPARPSKD [YPL073C 79-92], the normalised SPOT signal, Boehringer light units (BLU); mean over the file's lines of this peptide is reported as 179. For YILPKTDPRSPYYI [YPR115W 96-109], the normalised SPOT signal, Boehringer light units (BLU); mean over the file's lines of this peptide was 19.5. For YKNRKNLPTIPIRL [YGL085W 139-152], the normalised SPOT signal, Boehringer light units (BLU); mean over the file's lines of this peptide was 28200. YFVKKIRPGNPLTK [YJL149W 279-292] gave a normalised SPOT signal, Boehringer light units (BLU); mean over the file's lines of this peptide of 139.

Biological target: T5, Yfr024 SH3 (LSB3_YEAST), P43603
T5 chain: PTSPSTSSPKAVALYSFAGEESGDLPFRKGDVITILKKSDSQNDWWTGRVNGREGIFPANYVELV
Experiment: SPOT array
YEGPRGAPGMPEML [YJR016C 463-476] gave a normalised SPOT signal, Boehringer light units (BLU); mean over the file's lines of this peptide of 131. Work on YVYGRQDPKKPFFT [YNL137C 410-423] yielded a normalised SPOT signal, Boehringer light units (BLU); mean over the file's lines of this peptide of 159. In the case of YVNPRNLPSVPNGL [YLR418C 264-277], the normalised SPOT signal, Boehringer light units (BLU); mean over the file's lines of this peptide is reported as 952. In the case of YYYYKHYPNMPPIN [YMR313C 453-466], the normalised SPOT signal, Boehringer light units (BLU); mean over the file's lines of this peptide is reported as 391. In the case of YSTNRGIPARPSKD [YPL073C 79-92], the normalised SPOT signal, Boehringer light units (BLU); mean over the file's lines of this peptide is reported as 17300. With YILPKTDPRSPYYI [YPR115W 96-109] the normalised SPOT signal, Boehringer light units (BLU); mean over the file's lines of this peptide was 113. YKNRKNLPTIPIRL [YGL085W 139-152] showed a normalised SPOT signal, Boehringer light units (BLU); mean over the file's lines of this peptide of 2960. YFVKKIRPGNPLTK [YJL149W 279-292] gave a normalised SPOT signal, Boehringer light units (BLU); mean over the file's lines of this peptide of 244.

Biological target: T6, Yhr016c SH3 (YSC84_YEAST), P32793
T6 chain: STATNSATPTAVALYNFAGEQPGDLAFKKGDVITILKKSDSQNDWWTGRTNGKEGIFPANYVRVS
Experiment: SPOT array
YEGPRGAPGMPEML [YJR016C 463-476] was tested, and the normalised SPOT signal, Boehringer light units (BLU); mean over the file's lines of this peptide was 15.4. YVYGRQDPKKPFFT [YNL137C 410-423] gave a normalised SPOT signal, Boehringer light units (BLU); mean over the file's lines of this peptide of 32.8. YVNPRNLPSVPNGL [YLR418C 264-277] was tested, and the normalised SPOT signal, Boehringer light units (BLU); mean over the file's lines of this peptide was 765. YYYYKHYPNMPPIN [YMR313C 453-466] showed a normalised SPOT signal, Boehringer light units (BLU); mean over the file's lines of this peptide of 253. YSTNRGIPARPSKD [YPL073C 79-92] was tested, and the normalised SPOT signal, Boehringer light units (BLU); mean over the file's lines of this peptide was 5100. With YILPKTDPRSPYYI [YPR115W 96-109] the normalised SPOT signal, Boehringer light units (BLU); mean over the file's lines of this peptide was 27.8. YKNRKNLPTIPIRL [YGL085W 139-152] showed a normalised SPOT signal, Boehringer light units (BLU); mean over the file's lines of this peptide of 538. YFVKKIRPGNPLTK [YJL149W 279-292] showed a normalised SPOT signal, Boehringer light units (BLU); mean over the file's lines of this peptide of 92.2.
